Experimental data published in US20200121803A1 (published 2020).
Where a chain is given by its changes, count along the chain named.

B1: ChAb1-CZ (other)
VH: EVKLVESGGGLVQPGGSLRLSCATSGFTFTDYYMSWVRQPPGKALEWLGFIRNPANVYTTEYSASVKGRFTISRDNSQSILYLQMNTLRAEDSATYYCARASYGNSEGWFAYWGQGTLVTVSA
VL: DIVMSQSPSSLAVSVGEKVTMSCKSSQNLLYNNNQKNYLAWYQQKPGQSPKLLIYWASTRESGVPDRFTGSGSGTDFTLTISSVKAEDLAVYYCQQYYSYPRTFGGGTKLEIK
modifications: synthon CZ on reduced interchain Cys of the constant regions (sites not numbered)
B2: ChAb5-CZ (other)
VH: B1 VH with S35T, P54K, V57G, Q78L, G104V
VL: B1 VL with N28S, N32S, N33S, P46L, Q96H
modifications: synthon CZ on reduced interchain Cys of the constant regions (sites not numbered)
B3: ChAb3-CZ (other)
VH: EVKLVESGGGLVQPGNSLRLSCATSGFTFIDYYMSWVRQSPGKALEWLGFIRNKANGYTTEYSASVKGRFTISRDNSQSILYLQMDTLRAEDSATYYCTRDRPAWFVYWGQGTLVTVSA
VL: B1 VL with N28S, N32S, N33S, I81F, K85R, R102Y
modifications: synthon CZ on reduced interchain Cys of the constant regions (sites not numbered)
B4: ChAb8-CZ (other)
VH: EVQLVESGGGLVQPGRSLKLSCAASGFTFSDYAMAWVRQAPKKGLEWVASIIYDGRGTYYRDSVKGRFTISRDNAKSTLYLQMDSLRSEDTATYYCARQGDGTYYYWGYFDYWGQGVMVTVSS
VL: DIVMTQSPSSLAVSAGETVTINCKSSQSLLSSGNQKNYLAWYQQKPGQSPKLLIYWASTRQSGVPDRFIGSGSGTDFTLTINSVQAEDLAIYYCQQYYDTPYTFGAGTKLELK
modifications: synthon CZ on reduced interchain Cys of the constant regions (sites not numbered)
B5: ChAb12-CZ (other)
VH: B4 VH with Y109S
VL: B4 VL with N82S, Y93H
modifications: synthon CZ on reduced interchain Cys of the constant regions (sites not numbered)
B6: ChAb10-CZ (other)
VH: B4 VH with G44S, S50T, Y60C, Y105H
VL: B4 VL with N82S, L110V, E111D
modifications: synthon CZ on reduced interchain Cys of the constant regions (sites not numbered)
B7: ChAb11-CZ (other)
VH: B4 VH with S50G
VL: B4 VL with K24R, N82S
modifications: synthon CZ on reduced interchain Cys of the constant regions (sites not numbered)
B8: CD98 (CL-huAb102)-SE (antibody, human IgG1, kappa, L234A L235A, V domains shown)
VH: EVQLVESGGGLVQPGGSLRLSCATSGFTFIDYYMSWVRQAPGKGLEWLGFIRNKANRYTTEYSASVKGRFTISRDNSKSILYLQMNSLKTEDTAVYYCTRDRPAWFVYWGQGTLVTVSS
VL: DIVMTQTPLSLPVTPGEPASISCKSSQSLLYSSNQKNYLAWYLQKPGQSPQLLIYWASTRESGVPDRFSGSGSGTDFTLKISRVEAEDVGVYYCQQYYSYPYTFGGGTKVEIKR
modifications: synthon SE on reduced cysteine (see heavy chain); Bcl-xL inhibitor synthon SE on cysteines freed by TCEP reduction (Method A); DAR 2.2 by MS for the whole ADC
B9: CD98 (CL-huAb104)-YG (antibody, human IgG1, kappa, L234A L235A, V domains shown)
VH: B8 VH with N56Y, R57G
VL: B8 VL
modifications: synthon YG on reduced cysteine (see heavy chain); Bcl-xL inhibitor synthon YG on cysteines freed by TCEP reduction (Method E); DAR 1.3 by MS for the whole ADC
B10: CD98 (CL-huAb110)-YG (antibody, human IgG1, kappa, L234A L235A, V domains shown)
VH: EVQLVQSGAEVKKPGASVKVSCKASGFTFSDYTMAWVRQAPGQGLEWVATIIYDARGTYYRDAVKGRFTITRDNSTSTLYLELSSLRSEDTAVYYCARQSDDTYYYWGYFDYWGQGTMVTVSS
VL: B8 VL with S22N, Y31F, S33G, E61Q, V91I, Y100S, G106Q, V110L
modifications: synthon YG on reduced cysteine (see heavy chain); Bcl-xL inhibitor synthon YG on cysteines freed by TCEP reduction (Method E); DAR 2.8 by MS for the whole ADC
B11: CD98 (CL-huAb110)-SE (antibody, human IgG1, kappa, L234A L235A, V domains shown)
VH: B10 VH
VL: B8 VL with S22N, Y31F, S33G, E61Q, V91I, Y100S, G106Q, V110L
modifications: synthon SE on reduced cysteine (see heavy chain); Bcl-xL inhibitor synthon SE on cysteines freed by TCEP reduction (Method A); DAR 1.9 by MS for the whole ADC
B12: CD98 (CL-huAb102)-SR (antibody, human IgG1, kappa, L234A L235A, V domains shown)
VH: B8 VH
VL: B8 VL
modifications: synthon SR on reduced cysteine (see heavy chain); Bcl-xL inhibitor synthon SR on cysteines freed by TCEP reduction (Method A); DAR 2.1 by MS for the whole ADC
B13: CD98 (CL-huAb104)-KZ (antibody, human IgG1, kappa, L234A L235A, V domains shown)
VH: B8 VH with N56Y, R57G
VL: B8 VL
modifications: synthon KZ on reduced cysteine (see heavy chain); Bcl-xL inhibitor synthon KZ on cysteines freed by TCEP reduction (Method A); DAR 2.6 by MS for the whole ADC
B14: CD98 (CL-huAb104)-SE (antibody, human IgG1, kappa, L234A L235A, V domains shown)
VH: B8 VH with N56Y, R57G
VL: B8 VL
modifications: synthon SE on reduced cysteine (see heavy chain); Bcl-xL inhibitor synthon SE on cysteines freed by TCEP reduction (Method A); DAR 2.4 by MS for the whole ADC
B15: CD98 (CL-huAb102)-KZ (second row with this label, r76, DAR 2.2) (antibody, human IgG1, kappa, L234A L235A, V domains shown)
VH: B8 VH
VL: B8 VL
modifications: synthon KZ on reduced cysteine (see heavy chain); Bcl-xL inhibitor synthon KZ on cysteines freed by TCEP reduction (Method A); DAR 2.2 by MS for the whole ADC
B16: CD98 (CL-huAb102)-YG (antibody, human IgG1, kappa, L234A L235A, V domains shown)
VH: B8 VH
VL: B8 VL
modifications: synthon YG on reduced cysteine (see heavy chain); Bcl-xL inhibitor synthon YG on cysteines freed by TCEP reduction (Method E); DAR 1.1 by MS for the whole ADC
B17: CD98 (CL-huAb110)-SR (antibody, human IgG1, kappa, L234A L235A, V domains shown)
VH: B10 VH
VL: B8 VL with S22N, Y31F, S33G, E61Q, V91I, Y100S, G106Q, V110L
modifications: synthon SR on reduced cysteine (see heavy chain); Bcl-xL inhibitor synthon SR on cysteines freed by TCEP reduction (Method A); DAR printed as '.0.7' by MS for the whole ADC
B18: CD98 (CL-huAb104)-SR (antibody, human IgG1, kappa, L234A L235A, V domains shown)
VH: B8 VH with N56Y, R57G
VL: B8 VL
modifications: synthon SR on reduced cysteine (see heavy chain); Bcl-xL inhibitor synthon SR on cysteines freed by TCEP reduction (Method A); DAR 2.2 by MS for the whole ADC
B19: CD98 (CL-huAb102)-KZ (antibody, human IgG1, kappa, L234A L235A, V domains shown)
VH: B8 VH
VL: B8 VL
modifications: synthon KZ on reduced cysteine (see heavy chain); Bcl-xL inhibitor synthon KZ on cysteines freed by TCEP reduction (Method A); DAR 2.8 by MS for the whole ADC

Biological target: T1, human CD98 on the cell surface (human)
T1 chain: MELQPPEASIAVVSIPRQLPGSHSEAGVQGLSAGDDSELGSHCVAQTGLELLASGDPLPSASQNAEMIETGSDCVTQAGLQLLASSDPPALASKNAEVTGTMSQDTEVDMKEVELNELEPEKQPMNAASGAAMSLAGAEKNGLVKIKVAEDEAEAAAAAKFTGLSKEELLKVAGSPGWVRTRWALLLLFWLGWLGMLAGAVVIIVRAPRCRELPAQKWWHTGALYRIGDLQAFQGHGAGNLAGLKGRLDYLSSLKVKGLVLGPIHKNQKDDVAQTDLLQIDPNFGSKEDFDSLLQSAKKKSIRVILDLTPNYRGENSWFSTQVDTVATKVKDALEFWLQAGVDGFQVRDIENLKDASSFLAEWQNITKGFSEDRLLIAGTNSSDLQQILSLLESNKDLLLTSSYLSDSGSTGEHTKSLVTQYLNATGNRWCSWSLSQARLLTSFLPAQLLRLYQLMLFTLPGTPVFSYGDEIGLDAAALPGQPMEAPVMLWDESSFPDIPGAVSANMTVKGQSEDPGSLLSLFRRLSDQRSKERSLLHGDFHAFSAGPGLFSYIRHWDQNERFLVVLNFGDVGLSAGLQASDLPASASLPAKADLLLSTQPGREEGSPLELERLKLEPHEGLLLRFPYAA
Experiment: cell-based or functional assay

| ADC potency, IC50 (nM), H146 (SCLC) growth inhibition [nM] | ADC potency, IC50 (nM), H2170 (NSCLC) growth inhibition [nM] | ADC potency, IC50 (nM), MOLT4 (leukemia) growth inhibition [nM] | Binder |
| --- | --- | --- | --- |
| ~0.196 | 0.276 | 0.071 | B1 |
| ~0.188 | 0.161 | 0.029 | B2 |
| 0.255 | ~0.171 | 0.026 | B3 |
| 0.094 | 0.112 | 0.038 | B4 |
| 0.242 | 0.118 | 0.034 | B5 |
| 0.209 | 0.09 | 0.035 | B6 |
| 0.527 | 0.195 | 0.199 | B7 |

Biological target: T2, human CD98, endogenously expressed on Molt-4 human acute lymphoblastic leukemia cells (human)
T2 chain: T1 chain
Experiment: cell-based or functional assay

| Molt4 IC50 (nM), 50% inhibition of cell proliferation, 72 h, ATPlite [nM] | Binder | % Cell Viability at 50 nM (Molt-4) [%] |
| --- | --- | --- |
| 0.107 | B8 | 19.7 |
| 2.67 | B9 | 25.3 |
| 0.493 | B10 | 10 |
| 0.502 | B11 | 5.7 |
| 0.03 | B12 | 12.7 |
| 0.089 | B13 | 21.2 |
| 0.149 | B14 | 17.1 |
| 0.35 | B15 | 16.2 |
| 1.21 | B16 | 31.9 |
| 0.332 | B17 | 11 |
| 0.045 | B18 | 2.7 |
| 0.062 | B19 | 20.7 |
